Substitutions are numbered along the chain they refer to.
Biological target: T1, Biotin-huCGRPaSA (human, not fully specified; biotin (position not given))
T1 construct: exact construct ('aSA') not explained; also called Biotin CGRPaSA; full-length (1-37) CGRP
T1 peptide: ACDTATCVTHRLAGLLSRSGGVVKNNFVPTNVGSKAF
Experiment: ELISA, supernatant; relative to chimeric C245
In short: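 Antibodies, including reference chimeric C245, titrated 2.5-fold from 1000 ng/mL and incubated 60 min at 37°C on wells coated with 1.0 μg/mL biotin-CGRPaSA and blocked with 2% BSA. Bound IgG detected with HRP anti-human Fc antibody and TMB, acid-stopped, absorbance 450/620 nm.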

B1: hu67 (antibody, V domains shown)
VH: QVQLVQSGSELKKPGASVKVSCKASGYTFTDFNMHWVRQAPGQGLEWMGYIYPYNGDVVYNQNFTNRFVLSVDSSSSTAYLQISSLKAEDTAVYYCAREGLGGYWGQGTLVTVSS
VL: DIVLTQSPASLAVSPGQRATITCKASQNIDYDGYAYLNWYQQKPGQPPKVLIYSVFNLESGVPARFSGSGSGTDFTLTINPVEADDTANYYCQQSNEFPYTFGQGTKLEIK
notes: 1F5 HC-4/1A2 LC2-2
- Relative binding activity, %: 115%

B2: hu221 (antibody, V domains shown)
VH: QVQLVQSGAEVKKPGASVKVSCKASGYTFTDYNMHWVRQAPGQGLEWMGYIYPYNGHTVYNQKFRNRVTLTVDTSSSTAYMELRSLRSDDTAVYYCAREGLGGYWGQGTLVTVSS
VL: DIQLTQSPSSLSASVGDRVTITCKASQNIDYGGYSYMNWYQQKPGKAPKVLIYSVFNLESGVPSRFSGSGSGTDFTLTISSLQPEDFATYYCQQSNEAPYTFGQGTKLEIK
notes: 3H10 HC-2/3H10 LC2-2
- Relative binding activity, %: 24%

B3: hu33 (antibody, V domains shown)
VH: B2 VH with T30I, Y32F, G44R, H57D, T58V, K63N, R65T, R84S, D89E
VL: B1 VL with Y31F, L37M, N96H, F98V
notes: 1F5 HC-1/1F5 LC1-3
- Relative binding activity, %: 18%

B4: hu29 (antibody, V domains shown)
VH: B2 VH with T30I, Y32F, G44R, H57D, T58V, K63N, R65T, R84S, D89E
VL: EIVLTQSPATLSLSPGERATLSCKASQNIDYDGYAYLNWYQQKPGQAPRVLIYSVFNLESGIPARFSGSGSGTDFTLTISSLEPEDFAVYYCQQSNEFPYTFGQGTKLEIK
notes: 1F5 HC-1/1A2 LC2-3
- Relative binding activity, %: 63%

B5: hu25 (antibody, V domains shown)
VH: B2 VH with G44R, Y52F, H57V, T58A, Q62R, N66S, R84S, D89E
VL: DIVLTQSPDSLAVSLGERATINCKASQNIDYGGYSYMNWYQQKPGQPPKVLIYSVFNLESGVPDRFSGSGSGTDFTLTISSLQAEDVAVYYCQQSNEAPYTFGQGTKLEIK
notes: 1B2 HC-2/3H10 LC2-1
- Relative binding activity, %: 66%

B6: hu52 (antibody, V domains shown)
VH: B2 VH with Y32F, G44R, H57D, T58V, K63N, R65T, R84S, D89E
VL: B2 VL
notes: 1F5 HC-2/3H10 LC2-2
- Relative binding activity, %: 25%

B7: hu47 (antibody, V domains shown)
VH: B2 VH with Y32F, G44R, H57D, T58V, K63N, R65T, R84S, D89E
VL: B5 VL with Y31F, G32D, S35A, Q42H, N96H, A98V
notes: 1F5 HC-2/1F5 LC1-4
- Relative binding activity, %: 10%

B8: hu51 (antibody, V domains shown)
VH: B2 VH with Y32F, G44R, H57D, T58V, K63N, R65T, R84S, D89E
VL: B5 VL
notes: 1F5 HC-2/3H10 LC2-1
- Relative binding activity, %: 83%

B9: hu21 (antibody, V domains shown)
VH: B2 VH with G44R, Y52F, H57V, T58A, Q62R, N66S, R84S, D89E
VL: B5 VL with Y31F, G32D, S35A, Q42H, N96H, A98V
notes: 1B2 HC-2/1F5 LC1-4
- Relative binding activity, %: 33%

B10: hu39 (antibody, V domains shown)
VH: B2 VH with T30I, Y32F, G44R, H57D, T58V, K63N, R65T, R84S, D89E
VL: B2 VL
notes: 1F5 HC-1/3H10 LC2-2
- Relative binding activity, %: 51%

B11: hu218 (antibody, V domains shown)
VH: B2 VH
VL: DVQLTQSPSFLSASVGDRVTITCQASQNIDGNTYMNWYQQKPGKAPKVLIYSIFNLESGVPSRFSGSGSGTEFTLTISSLQPEDFATYYCQQSNDYPYTFGQGTKLEIK
notes: 3H10 HC-2/2B8 LC2-2
- Relative binding activity, %: 24%

B12: hu26 (antibody, V domains shown)
VH: B2 VH with G44R, Y52F, H57V, T58A, Q62R, N66S, R84S, D89E
VL: B2 VL
notes: 1B2 HC-2/3H10 LC2-2
- Relative binding activity, %: 20%

B13: hu62 (antibody, V domains shown)
VH: B2 VH with Y32F, H57D, T58V, K63N, R65T
VL: B11 VL
notes: 1F5 HC-3/2B8 LC2-2
- Relative binding activity, %: 15%

B14: hu36 (antibody, V domains shown)
VH: B2 VH with T30I, Y32F, G44R, H57D, T58V, K63N, R65T, R84S, D89E
VL: B11 VL
notes: 1F5 HC-1/2B8 LC2-2
- Relative binding activity, %: 40%

B15: hu88 (antibody, V domains shown)
VH: B2 VH with T30I, Y32F, G44R, G56A, H57D, T58V, K63D, R65T, R84S, D89E
VL: B11 VL
notes: 1F5 HC-5/2B8 LC2-2
- Relative binding activity, %: 93%

B16: hu49 (antibody, V domains shown)
VH: B2 VH with Y32F, G44R, H57D, T58V, K63N, R65T, R84S, D89E
VL: B11 VL
notes: 1F5 HC-2/2B8 LC2-2
- Relative binding activity, %: 60%

B17: hu127 (antibody, V domains shown)
VH: B2 VH with Y50N, H57G, R65N
VL: B11 VL
notes: 2B8 HC1-2/2B8 LC2-2
- Relative binding activity, %: 24%

B18: hu23 (antibody, V domains shown)
VH: B2 VH with G44R, Y52F, H57V, T58A, Q62R, N66S, R84S, D89E
VL: B11 VL
notes: 1B2 HC-2/2B8 LC2-2
- Relative binding activity, %: 17%

B19: hu101 (antibody, V domains shown)
VH: B2 VH with G44R, I51V, H57G, T58S, V59A, R65K, N66S, R84S, D89E
VL: B11 VL
notes: 2A2 HC-1/2B8 LC2-2
- Relative binding activity, %: 48%

B20: hu205 (antibody, V domains shown)
VH: B2 VH with L70M, R98K
VL: B11 VL
notes: 3H10 HC-1/2B8 LC2-2
- Relative binding activity, %: 26%

B21: hu179 (antibody, V domains shown)
VH: B2 VH with Y52S, H57G, V59A, R65K, N66F, R84S, S85R, A92V
VL: B11 VL
notes: 3E5 HC-3/2B8 LC2-2
- Relative binding activity, %: 77%

B22: hu10 (antibody, V domains shown)
VH: B2 VH with Y52F, H57V, T58A, Q62R, N66S, V72I
VL: B11 VL
notes: 1B2 HC-1/2B8 LC2-2
- Relative binding activity, %: 14%

B23: hu192 (antibody, V domains shown)
VH: B2 VH with A24T, G44R, Y52S, G56A, H57G, V59A, R65K, N66F, R84S, D89E
VL: B11 VL
notes: 3E5 HC-4/2B8 LC2-2
- Relative binding activity, %: 15%

B24: hu153 (antibody, V domains shown)
VH: B2 VH with A24T, G44R, Y52S, H57G, V59A, R65K, N66F, R84S, D89E
VL: B11 VL
notes: 3E5 HC-1/2B8 LC2-2
- Relative binding activity, %: 56%

B25: hu114 (antibody, V domains shown)
VH: B2 VH with Y50N, H57G, R65N, R84S, S85R
VL: B11 VL
notes: 2B8 HC1-1/2B8 LC2-2
- Relative binding activity, %: 41%

B26: hu140 (antibody, V domains shown)
VH: B2 VH with Y50N, G56A, H57G, R65N, R84S, S85R
VL: B11 VL
notes: 2B8 HC1-3/2B8 LC2-2
- Relative binding activity, %: 47%

B27: hu166 (antibody, V domains shown)
VH: B2 VH with G44R, Y52S, H57G, V59A, R65K, N66F, R84S, D89E
VL: B11 VL
notes: 3E5 HC-2/2B8 LC2-2
- Relative binding activity, %: 19%

Source: patent US20260125454A1 (SHANGHAI JUNSHI BIOSCIENCES, published 2026)
